In publication PMC4728126, “Stable G protein-effector complexes in striatal neurons: mechanism of assembly and role in neurotransmitter signaling” (eLife, 2015):

Target: adenylyl cyclase type 5 (mouse (endogenous in striatum)) (UniProt P84309)
Sequence (P84309 whole entry): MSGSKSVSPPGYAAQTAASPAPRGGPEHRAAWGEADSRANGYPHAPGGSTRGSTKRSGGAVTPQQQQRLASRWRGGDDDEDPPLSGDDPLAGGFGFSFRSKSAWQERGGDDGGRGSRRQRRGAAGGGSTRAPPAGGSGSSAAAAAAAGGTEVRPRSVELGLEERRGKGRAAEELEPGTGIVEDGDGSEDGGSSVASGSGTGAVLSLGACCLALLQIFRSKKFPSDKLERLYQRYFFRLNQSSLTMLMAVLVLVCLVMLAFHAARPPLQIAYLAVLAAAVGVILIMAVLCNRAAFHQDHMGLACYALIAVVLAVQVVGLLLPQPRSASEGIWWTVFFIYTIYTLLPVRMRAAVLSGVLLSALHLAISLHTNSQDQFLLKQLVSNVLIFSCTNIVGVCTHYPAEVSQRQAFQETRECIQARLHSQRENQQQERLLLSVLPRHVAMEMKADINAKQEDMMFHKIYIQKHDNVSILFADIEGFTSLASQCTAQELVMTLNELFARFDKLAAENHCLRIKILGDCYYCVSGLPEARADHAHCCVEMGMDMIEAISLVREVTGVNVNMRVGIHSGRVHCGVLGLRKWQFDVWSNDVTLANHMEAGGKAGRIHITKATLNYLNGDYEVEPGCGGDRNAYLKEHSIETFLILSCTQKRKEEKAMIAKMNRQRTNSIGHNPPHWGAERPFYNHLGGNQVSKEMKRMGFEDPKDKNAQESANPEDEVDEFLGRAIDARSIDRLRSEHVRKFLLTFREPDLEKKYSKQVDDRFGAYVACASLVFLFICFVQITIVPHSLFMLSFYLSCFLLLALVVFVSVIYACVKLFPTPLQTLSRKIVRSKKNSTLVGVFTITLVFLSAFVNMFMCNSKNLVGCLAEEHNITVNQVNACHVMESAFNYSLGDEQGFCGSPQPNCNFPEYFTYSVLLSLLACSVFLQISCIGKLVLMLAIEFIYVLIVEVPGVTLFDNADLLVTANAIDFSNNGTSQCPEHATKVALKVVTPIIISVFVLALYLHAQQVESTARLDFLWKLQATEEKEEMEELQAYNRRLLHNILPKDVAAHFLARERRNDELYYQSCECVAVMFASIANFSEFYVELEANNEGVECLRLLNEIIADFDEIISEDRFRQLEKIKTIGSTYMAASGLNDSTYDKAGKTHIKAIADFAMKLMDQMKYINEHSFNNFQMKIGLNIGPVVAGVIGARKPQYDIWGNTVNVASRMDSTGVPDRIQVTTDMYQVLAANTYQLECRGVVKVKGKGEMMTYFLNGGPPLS

Chain of Gαs-GTPγS (P63092 whole entry): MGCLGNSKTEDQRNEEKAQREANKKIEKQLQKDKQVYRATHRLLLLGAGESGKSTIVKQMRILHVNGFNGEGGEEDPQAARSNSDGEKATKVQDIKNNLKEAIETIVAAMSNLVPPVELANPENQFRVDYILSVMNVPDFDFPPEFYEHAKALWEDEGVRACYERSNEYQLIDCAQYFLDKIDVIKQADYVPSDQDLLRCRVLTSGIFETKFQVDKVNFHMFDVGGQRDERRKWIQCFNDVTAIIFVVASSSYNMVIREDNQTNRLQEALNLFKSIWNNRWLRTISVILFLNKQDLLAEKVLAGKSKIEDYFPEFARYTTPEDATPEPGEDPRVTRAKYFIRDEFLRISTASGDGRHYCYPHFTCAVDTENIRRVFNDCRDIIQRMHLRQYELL

EC50 of Gαs-GTPγS-mediated activation of adenylyl cyclase in striatal membranes, PhLP1-treated reaction (0.5 μM purified PhLP1): 22.3 nM
EC50 of Gαs-GTPγS-mediated activation of adenylyl cyclase in striatal membranes, control reaction: 16.2 nM
Substance: Gαs-GTPγS (from UniProt P63092 1-394) (natural protein)
